In article PMC8840716, “Functional Antagonism of WRI1 and TCP20 Modulates GH3.3 Expression to Maintain Auxin Homeostasis in Roots” (Plants, 2022):

Molecular target: T1, GST-AtWRI1 (Arabidopsis, UniProt Q6X5Y6 1-430)
T1 construct: Arabidopsis WRINKLED1 (AtWRI1), AT3G54320, full-length, sub-cloned into pET41a-GST; also called WRINKLED1; GST agarose-coupled AtWRI1; source: E. coli BL21 (DE3), purified
T1 sequence (looked up): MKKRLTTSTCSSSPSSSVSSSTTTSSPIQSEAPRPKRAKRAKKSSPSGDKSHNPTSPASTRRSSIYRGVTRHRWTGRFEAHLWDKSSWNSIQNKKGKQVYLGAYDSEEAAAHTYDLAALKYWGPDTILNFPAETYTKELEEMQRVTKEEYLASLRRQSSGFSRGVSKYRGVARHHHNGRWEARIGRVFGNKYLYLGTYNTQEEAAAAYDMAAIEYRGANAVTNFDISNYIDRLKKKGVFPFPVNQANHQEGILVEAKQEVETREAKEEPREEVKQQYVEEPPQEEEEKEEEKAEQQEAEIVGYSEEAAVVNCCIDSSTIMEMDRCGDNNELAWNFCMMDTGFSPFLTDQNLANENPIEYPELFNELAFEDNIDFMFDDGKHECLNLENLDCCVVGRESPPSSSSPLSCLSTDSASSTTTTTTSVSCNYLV
Experiment: pull-down; purified His-TCP20 incubated with GST beads coupled with purified GST-AtWRI1; 20 mM Tris-HCl pH 7.4, 150 mM NaCl, 1 mM DTT, 0.1 mM EDTA, 0.1% IGEPAL CA-630, 4 °C overnight, 5 washes; immunoblot with anti-His antibody
Conditions: both partners purified

- binding result: binds
B1: His-TCP20 (natural protein)
chain: not shown
notes: Arabidopsis TCP20, AT3G27010, full-length, sub-cloned into pET41a-6xHis; also called His-tagged TCP20; source: E. coli BL21 (DE3), purified
